Results on 4 molecules are retold here after publication PMC10474274, “Structural insights into mechanisms of Argonaute protein-associated NADase activation in bacterial immunity”.

In data set [1] the target is Ago protein from Maribacter polysiphoniae (Maribacter polysiphoniae). As to the kind of experiment: cryo-EM structure; TIR-APAZ/Ago with gRNA and target ssDNA (1:1.5:2), tetramer of heterodimers, 2.95 Å.
Data set [2] deals with TIR-APAZ protein from Maribacter polysiphoniae (Maribacter polysiphoniae). The data set is described as above.
The target of data set [3] is TIR-APAZ/Ago complex from Maribacter polysiphoniae (Maribacter polysiphoniae). The data set is described as above.
The target of data set [4] is SIR2-APAZ;short prokaryotic Ago (SIR2-APAZ system) (Geobacter sulfurreducens;Geobacter …, UniProt Q74DF6;Q74DF5 1-587;1-473, |). The data set can be described thus: cryo-EM; metal ion at 5'-phosphate; 2 mM MgCl2; heterodimer; 3.0 A; cryo-EM: complex:gRNA:target DNA 1:1.5:2; TIR system 25 mM Tris-HCl pH 7.5, 150 mM NaCl, 2 mM DTT, 2 mM MgCl2; SIR2 system 25 mM HEPES pH 7.9, 150 mM NaCl, 2 mM DTT, 2 mM MgCl2 (gel-filtration buffers); native PAGE conditions not in material. The note with it: protein: recombinant;recombinant; tags: His-SUMO (N-terminal); copies: 1;1; about 25 bp visible.
Chain of SIR2-APAZ;short prokaryotic Ago (SIR2-APAZ system) (chain, as listed by the source |, chain 1 of 2): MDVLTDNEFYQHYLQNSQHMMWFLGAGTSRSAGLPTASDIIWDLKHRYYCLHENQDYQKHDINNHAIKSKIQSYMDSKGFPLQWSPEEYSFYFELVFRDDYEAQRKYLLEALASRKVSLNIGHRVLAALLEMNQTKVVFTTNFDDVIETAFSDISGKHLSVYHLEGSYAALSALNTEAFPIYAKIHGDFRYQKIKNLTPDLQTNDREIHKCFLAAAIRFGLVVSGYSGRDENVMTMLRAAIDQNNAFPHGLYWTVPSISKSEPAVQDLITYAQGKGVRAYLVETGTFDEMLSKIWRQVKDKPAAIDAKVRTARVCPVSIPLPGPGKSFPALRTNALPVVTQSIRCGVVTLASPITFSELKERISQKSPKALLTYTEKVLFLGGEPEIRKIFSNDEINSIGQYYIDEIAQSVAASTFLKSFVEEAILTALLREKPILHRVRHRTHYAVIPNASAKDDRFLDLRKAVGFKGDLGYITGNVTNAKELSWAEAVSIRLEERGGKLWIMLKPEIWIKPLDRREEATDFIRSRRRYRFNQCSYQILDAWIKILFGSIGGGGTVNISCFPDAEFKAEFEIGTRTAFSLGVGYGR
Chain of SIR2-APAZ;short prokaryotic Ago (SIR2-APAZ system) (chain, as listed by the source |, chain 2 of 2): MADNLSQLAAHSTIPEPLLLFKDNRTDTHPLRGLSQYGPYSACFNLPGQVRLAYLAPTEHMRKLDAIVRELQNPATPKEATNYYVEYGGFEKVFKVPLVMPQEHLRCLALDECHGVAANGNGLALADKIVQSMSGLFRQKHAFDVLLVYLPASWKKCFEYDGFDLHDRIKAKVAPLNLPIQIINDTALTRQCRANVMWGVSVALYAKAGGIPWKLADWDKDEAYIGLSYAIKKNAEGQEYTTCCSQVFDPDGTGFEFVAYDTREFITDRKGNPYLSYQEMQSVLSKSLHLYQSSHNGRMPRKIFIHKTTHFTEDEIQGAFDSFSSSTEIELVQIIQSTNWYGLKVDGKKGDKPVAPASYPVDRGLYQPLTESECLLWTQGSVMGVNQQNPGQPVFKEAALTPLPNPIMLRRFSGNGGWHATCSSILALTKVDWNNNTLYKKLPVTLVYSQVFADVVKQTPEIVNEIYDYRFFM

The molecule “Ago protein from Maribacter polysiphoniae (natural protein)” registered a stoichiometry N in data set [1] of 2.
On to “TIR-APAZ protein from Maribacter polysiphoniae (natural protein)”, for which, in data set [2], the stoichiometry N stood at 4.
“TIR-APAZ/Ago complex from Maribacter polysiphoniae” had a stoichiometry N in data set [3] of 4.

B1: gRNA + target ssDNA (SIR2-APAZ/Ago) (DNA:RNA)
RNA: AUAAUGGUUUCUUAGACGUCGUUUUAGAGCUGUGUUGUUUCG
DNA: CGAAACAACACAGCTCTAAAACGACGTCTAAGAAACCATTAT
modifications: 5'-phosphate on gRNA
As for B1, the binding result in data set [4] is reported as “binds”.

A word on the stoichiometry N: it is the number of molecules, sites or subunits per partner or assembly.
